± gives the standard deviation of the averaged measurements. Where only a bound is given, the exact number is not on record here.

A short description of data set [1]: PET hydrolysis, aromatic products released after 48 h (umol product/mg enzyme); higher = more PET depolymerization activity. A digest of the protocol: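 Hydrolysis activity toward PET is reported as supernatant aromatic product per mg enzyme. To measure it, 5 μg (50 μL) of tagless enzyme was incubated with 3.5 mg amorphous PET film or crystalline PET powder in 450 μL buffer for 48 h at 40 or 60 °C in sealed, unshaken plates. The product was quantified by absorbance at 260 and 280 nm relative to buffer blanks.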

A short description of data set [2]: purified protein yield per well (BCA); higher = higher soluble expression. The essentials:
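The measured quantity is purified protein yield per well, determined with the Pierce Rapid Gold BCA kit. Anything below 25 ug (0.1 mg/mL) lies under the detection threshold. Enzymes were expressed in E. coli C41(DE3) in 2 mL autoinduction cultures with 100 µg/mL kanamycin at 37 °C for 2 h, then 18 °C for 40 h, and purified on an OT-2 robot using Ni-charged magnetic beads and SUMO protease release.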

Data set [3] in a line: melting temperature (DSF); higher = more thermostable. A digest of the protocol:
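Enzymes made in E. coli C41(DE3) were nickel-bead purified and cut free with SUMO protease before testing. Differential scanning fluorimetry gave each melting temperature. For this, 5 μL 5X Sypro Orange was added to 45 μL enzyme (0 to 0.3 mg/mL) in sealed PCR plates, and a Bio-Rad CFX96 read fluorescence from 25 °C over 250 cycles of 0.3 °C each, ramping at 0.3 °C/s.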

[4] abbreviates: substrate: aFilm, 40 °C, pH 4.5.
Setting [5] is: substrate: aFilm, 40 °C, pH 5.5.
The mark [6] stands for this setting: substrate: aFilm, 40 °C, pH 6.5.
Setting [7] is: substrate: aFilm, 40 °C, pH 7.5.
[8] abbreviates: substrate: aFilm, 60 °C, pH 4.5.
Where [9] appears, read: substrate: aFilm, 60 °C, pH 5.5.
Where [10] appears, read: substrate: aFilm, 60 °C, pH 6.5.
Setting [11] is: substrate: aFilm, 60 °C, pH 7.5.
Where [12] appears, read: substrate: cryPow, 40 °C, pH 4.5.
The mark [13] stands for this setting: substrate: cryPow, 40 °C, pH 5.5.
Where [14] appears, read: substrate: cryPow, 40 °C, pH 6.5.
Setting [15] is: substrate: cryPow, 40 °C, pH 7.5.
Where [16] appears, read: substrate: cryPow, 60 °C, pH 4.5.
Where [17] appears, read: substrate: cryPow, 60 °C, pH 5.5.
Where [18] appears, read: substrate: cryPow, 60 °C, pH 6.5.
[19] abbreviates: substrate: cryPow, 60 °C, pH 7.5.
Setting [20] is: substrate: cryPow, 40 °C, pH 8.5.
The mark [21] stands for this setting: substrate: cryPow, 60 °C, pH 8.5.

Consider “QSSSAAANPYERGPAPTVSSVAAQRGTFATAEVTVPPGNGFNGGKIYYPTDTSLGTWGAVAAVPGYTARWSAEGAWMGPWLASFGFVVIGIDTNSPNDYDTARGTQLLAALDYLTRKSPVHDRVDPNRLGVIGHSMGGGGAISAAERRPSLKAAVPLAPFSPSQNLSSLRVPTMIMGARDDGTVTPSYLDGLYSGMPAATQSAYIELTSGGHGFPTWGNSHVTRRAIPWLKIFLDNDTRYTQFLCPSPADSREVSRSQTKCPYVPPGGTTTPPSGEQIVGAASGRCLDVVNSSQTSGAQAHPWDCADRPGQKWARTDAGELRVYSNKCLDAEASGTSAGTRVVIWACHGRQNQRWNVNANGTITSVPSGLCLDTYNGGTGNGAQSVLGNCNGASTQRWTLR [TEP086]”, for which the PET hydrolysis in data set [1] (setting [4]), in data set [1] (setting [5]), in data set [1] (setting [6]), in data set [1] (setting [7]), in data set [1] (setting [8]) and in data set [1] (setting [9]) was below 3 each time. Besides, the PET hydrolysis in data set [1] (setting [10]), in data set [1] (setting [11]), in data set [1] (setting [12]), in data set [1] (setting [13]), in data set [1] (setting [14]) and in data set [1] (setting [15]) was below 3 in each case. The PET hydrolysis in data set [1] (setting [16]), in data set [1] (setting [17]), in data set [1] (setting [18]) and in data set [1] (setting [19]) was below 3 each time. Besides, in data set [2], the “purified protein yield per well” value worked out at 385 µg. Besides, the melting temperature in data set [3] is 56.8 C.
For “ADNPYERGPAPTAASIAADRGPFATAQVTVPRGNGFGGGVIYYPTDTSQGTFGAIAIAPGFGTAWSYYAWQGPRLASFGFVVIGIETNTLNDYADARATQLLAALDYLVNSSPVRDRVDRNRLAVGGHSMGGGGAILAANQRPSLLTAVGQAPYVPDGSLATIKSPTIIFAGQADGTVTPQYAQNAYNTIPSSVERAYVEIANEGHGFPAGGGGGNSGAFARTMMIWMKLFIDKDTRYAPFLCPSLSNANGISKYMASCPLDPPGGGPTASPTASPTVSPTVSPSGTPPATSAIRGVGSGRCLDVNGASQANGAQAQIWDCNGQNNQKWTTTSAGELRVYGNKCLDVNGGGTADGTSVIIWDCNGQNNQKWRLNTDGTITAVGANKCLDVSGAGTANGTKVQIWTCNGQNNQKWTRT [ESM038]”, the PET hydrolysis in data set [1] (setting [12]) is 4; in data set [1] (setting [13]), 10; in data set [1] (setting [14]), 16; in data set [1] (setting [15]), 19; in data set [1] (setting [16]), below 3; in data set [1] (setting [17]) it was below 3. Also, the PET hydrolysis in data set [1] (setting [18]) turned out to be 4; in data set [1] (setting [19]) it was 6. Moreover, in data set [2], the “purified protein yield per well” value came to 190 µg. In addition, the melting temperature in data set [3] is 68.8 C.
Consider “ADNPYQRGPNPTRESVAANRGTFATAETSVGGGNGFGGAKIYYPADTSQGKFAALAVVPGYTATWAAEGAWMGHWLASFGFVIIGIDTNSRNDWDTARGDQLLAALDYLTQRSSVRDRVDANRLGVMGHSMGGGGAISAALKRPTLKAAIGNAPFSASQNLTTMRVPIALNAGQRDGTVTPSMVTGYYNQVPATTEKMYLEFSGAGHAFPTSNNSALTRKIIPWMKIFLDQDTRYQQFLCPVMDNTGISASRSSCPLIPGDPTPPTDTYSLAGAASGKCADVEGRSQTNGAKLLLWPCNGQVNQRWTQTAAGELRVYDNPKCMDAGGSGQGERVTSNACNGGNSQKWTVNANGTVTNTTSGRCLDATGTADDAPVVVNTCNGAASQNWSKRS [TEP131]”, for which the PET hydrolysis in data set [1] (setting [4]), in data set [1] (setting [5]), in data set [1] (setting [6]), in data set [1] (setting [7]), in data set [1] (setting [8]) and in data set [1] (setting [9]) was below 3 throughout. The PET hydrolysis in data set [1] (setting [10]) was below 3; in data set [1] (setting [11]), below 3; in data set [1] (setting [12]), below 3; in data set [1] (setting [13]), below 3; in data set [1] (setting [14]), 4; in data set [1] (setting [15]), 6.5 ± 0.71. Further, the PET hydrolysis in data set [1] (setting [16]), in data set [1] (setting [17]), in data set [1] (setting [18]) and in data set [1] (setting [19]) was below 3 each time. For the same sequence, the “purified protein yield per well” value in data set [2] is 331 µg. Besides, the melting temperature in data set [3] was 55.3 C.
In the case of “ADNPYQRGPDPTPALVASVNGPFATASVSVPAGYGFGGGMIYYPTDTSQGTFGGIAISPGYTALFSAELAWMGPWLASHGFVVIGIETNNRNDFDEARGTQLLAALDYLTQQSPVRNRVDPNRLAVAGHSMGGGGALNAAIRRPSLKAAVGLAPFSPSSNLANDRVPTMVFSGQQDTVVTPSYVTGLYNSLPSTTQSAYLEIAGGDHGFPVGRPNQVMIRTMLPFVKIFVDYDTRYSPFLCPLSDTSGVVTYRSTCPLTPPGLPTTPPTTPPTTVPTSPPTGGPTTPPTTPSQPGGACTATYRTVNSWPGGFQGEVTVTAGNSAINGWTVRWTLDSGQAITQVWNGEVSTSGSTVSVRNAPYNGSLPPSGSTTFGFLSSGSPSSPSLTCTSP [DP059]”, the PET hydrolysis in data set [1] (setting [5]) was below 3; in data set [1] (setting [6]), below 3; in data set [1] (setting [7]) it was below 3; in data set [1] (substrate: aFilm, 40 °C, pH 8.5), below 3; in data set [1] (setting [9]), 2 ± 2.8; in data set [1] (setting [10]), below 3. The PET hydrolysis in data set [1] (setting [11]) was below 3; in data set [1] (substrate: aFilm, 60 °C, pH 8.5) it was below 3; in data set [1] (setting [13]), 5.5 ± 0.71; in data set [1] (setting [14]) it was 21.5 ± 3.5; in data set [1] (setting [15]), 35 ± 2.8; in data set [1] (setting [20]) it was 32.5 ± 3.5. In addition, the PET hydrolysis in data set [1] (setting [17]) was found to be 32.5 ± 2.1; in data set [1] (setting [18]), 47 ± 8.5; in data set [1] (setting [19]) it was 19.5 ± 3.5; in data set [1] (setting [21]) it was 34 ± 1.4. In addition, the “purified protein yield per well” value in data set [2] worked out at 255 µg. The same sequence gave a melting temperature in data set [3] of 74.2 C.
Turning to “QYQKGPDPTTSSLERAGSFATRTISVSSLAASGFGGGRIYYPTASGSYGVIAVSPGYTGTASTMYFWGERLSSHGFVVIVIETNTLLDQPGSRANQLMAALNYTVSQGNSRTSALYGKVDGNRRGVAGHSMGGGGTLIAAADNASLKAAVPMAPWNLSSLSFRGIRVPTMIFGCQSDAIAPVNTHAVPFYNAIPSSTKKGYVEMRLDDHFCVMNGGGHYETLGKLGISWFKRFIDEDTRYSKFLCGTEYNATVRSTEVSDSKNNCPY [DP039]”, the PET hydrolysis in data set [1] (setting [13]) was below 3; in data set [1] (setting [14]), 3; in data set [1] (setting [15]), 4; in data set [1] (setting [20]), 3; in data set [1] (setting [17]), below 3; in data set [1] (setting [18]), below 3. For the same sequence, the PET hydrolysis in data set [1] (setting [19]) and in data set [1] (setting [21]) was below 3 each time. Further, the “purified protein yield per well” value in data set [2] turned out to be 57 µg. For the same sequence, the melting temperature in data set [3] worked out at 47.8 C.

(Values after the supplement of paper PMC12455559.)
